Source: article PMC3064667

Molecular target: T1, human IL-10 receptor (human) (UniProt Q13651)
T1 sequence 1: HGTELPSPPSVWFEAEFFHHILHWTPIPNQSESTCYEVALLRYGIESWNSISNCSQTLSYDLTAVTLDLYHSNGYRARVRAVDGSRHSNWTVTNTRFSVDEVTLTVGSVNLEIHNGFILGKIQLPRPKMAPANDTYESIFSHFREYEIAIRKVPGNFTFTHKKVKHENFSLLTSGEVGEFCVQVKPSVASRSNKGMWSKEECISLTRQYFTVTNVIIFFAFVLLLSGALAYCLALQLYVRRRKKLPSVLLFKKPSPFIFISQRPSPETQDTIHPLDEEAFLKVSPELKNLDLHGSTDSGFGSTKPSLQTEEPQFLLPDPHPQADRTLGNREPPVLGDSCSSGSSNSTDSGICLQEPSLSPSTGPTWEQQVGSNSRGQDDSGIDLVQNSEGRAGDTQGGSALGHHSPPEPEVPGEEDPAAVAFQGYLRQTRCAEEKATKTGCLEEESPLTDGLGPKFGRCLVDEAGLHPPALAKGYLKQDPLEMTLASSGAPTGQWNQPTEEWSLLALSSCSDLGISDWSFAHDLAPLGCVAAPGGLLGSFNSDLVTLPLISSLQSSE
T1 sequence 2: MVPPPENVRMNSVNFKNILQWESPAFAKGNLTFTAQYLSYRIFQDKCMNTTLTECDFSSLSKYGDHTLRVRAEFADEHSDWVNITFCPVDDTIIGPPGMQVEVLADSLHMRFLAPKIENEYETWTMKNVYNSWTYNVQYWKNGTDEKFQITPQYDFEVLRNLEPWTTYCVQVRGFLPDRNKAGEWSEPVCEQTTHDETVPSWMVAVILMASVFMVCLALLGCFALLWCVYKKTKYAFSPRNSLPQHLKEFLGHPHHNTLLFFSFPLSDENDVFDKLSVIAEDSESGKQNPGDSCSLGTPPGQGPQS

recombinant bovine IL-10, sequence (P43480 19-178): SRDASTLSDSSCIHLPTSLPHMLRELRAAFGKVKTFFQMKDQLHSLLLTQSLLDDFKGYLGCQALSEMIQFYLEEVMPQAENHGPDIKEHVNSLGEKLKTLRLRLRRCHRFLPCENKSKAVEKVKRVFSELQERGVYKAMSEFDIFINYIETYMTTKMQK

recombinant bovine IL-10 (from UniProt P43480 19-178) (ligand)
CD83 expression by LPS stimulated DCs, average percentage compared to cells only stimulated with LPS; bovine IL-10 0.25-20 ng/ml (130.5 at 0.25 ng/ml falling to 38.2 at 20 ng/ml) (% of cells only stimulated with LPS): 130
CD86 expression by LPS stimulated DCs, average percentage compared to cells only stimulated with LPS; bovine IL-10 0.25-20 ng/ml (106.3 at 0.25 ng/ml falling to 51.0 at 20 ng/ml) (% of cells only stimulated with LPS): 106
IL-1β production by LPS stimulated monocytes with 10 ng/ml bovine IL-10, average percentage compared to cells only stimulated with LPS (% of cells only stimulated with LPS): 30.3
IL-12 production by LPS stimulated DCs, average percentage compared to cells only stimulated with LPS; bovine IL-10 0.25-20 ng/ml (102.9 at 0.25 ng/ml falling to 1.5 at 20 ng/ml) (% of cells only stimulated with LPS): 103
TNF-α production by LPS stimulated DCs, average percentage compared to cells only stimulated with LPS; bovine IL-10 0.25-20 ng/ml (143.9 at 0.25 ng/ml falling to 0.9 at 20 ng/ml) (% of cells only stimulated with LPS): 144
TNF-α production by LPS stimulated monocytes with 10 ng/ml bovine IL-10, average percentage compared to cells only stimulated with LPS (% of cells only stimulated with LPS): 14.2
